Measurements taken from the supplement of paper PMC9112550, “Optimization of the antimicrobial peptide Bac7 by deep mutational scanning” (BMC Biology, 2022).

System: Escherichia coli TOP10
Test: shrunken log2 fold change of peptide-encoding DNA abundance (4.5 h post-induction vs induction); higher = less antimicrobial activity (less host growth inhibition)
Settings: time post-induction: 4.5 h; library: site-saturation at positions 5, 18, 19, 20
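Note: peptides expressed intracellularly from a pBAD plasmid library in pooled LB shake-flask culture, induced with 0.3% L-arabinose, DNA abundance read by NGS, three biological replicates, DESeq2 with apeglm shrinkage.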

Sequence | shrunken log2 fold change
RRIRSRPPRLPRPRPRPQIRPRP | 0.267
RRIRSRPPRLPRPRPRPQKCPRP | 0.0984
RRIRSRPPRLPRPRPRPQLYPRP | -0.071
RRIRSRPPRLPRPRPRPQMMPRP | -0.143
RRIRSRPPRLPRPRPRPQMRPRP | 0.691
RRIRSRPPRLPRPRPRPQNAPRP | -0.427
RRIRSRPPRLPRPRPRPQNMPRP | -0.268
RRIRSRPPRLPRPRPRPQNTPRP | -0.522
RRIRSRPPRLPRPRPRPQNWPRP | 0.269
RRIRSRPPRLPRPRPRPQPAPRP | 0.0373
RRIRSRPPRLPRPRPRPQPCPRP | 2.29
RRIRSRPPRLPRPRPRPQPMPRP | 0.128
RRIRSRPPRLPRPRPRPQQDPRP | -0.164
RRIRSRPPRLPRPRPRPQQHPRP | 0.0668
RRIRSRPPRLPRPRPRPQRTPRP | -0.036
RRIRSRPPRLPRPRPRPQSIPRP | -0.263
RRIRSRPPRLPRPRPRPQTNPRP | -0.032
RRIRSRPPRLPRPRPRPQVHPRP | -0.012
RRIRSRPPRLPRPRPRPQVIPRP | 0.00733
RRIRSRPPRLPRPRPRPQWTPRP | -0.0105
RRIRSRPPRLPRPRPRPQWWPRP | 0.0138
RRIRSRPPRLPRPRPRPRAVPRP | 0.582
RRIRSRPPRLPRPRPRPRCIPRP | -0.155
RRIRSRPPRLPRPRPRPRCRPRP | 0.385
RRIRSRPPRLPRPRPRPRCVPRP | 0.116

Sequence | shrunken log2 fold change
RRIRSRPPRLPRPRPRPREDPRP | 0.432
RRIRSRPPRLPRPRPRPREFPRP | 0.322
RRIRSRPPRLPRPRPRPREPPRP | 0.284
RRIRSRPPRLPRPRPRPREQPRP | 0.796
RRIRSRPPRLPRPRPRPRFMPRP | -0.211
RRIRSRPPRLPRPRPRPRFSPRP | 0.44
RRIRSRPPRLPRPRPRPRGEPRP | 0.754
RRIRSRPPRLPRPRPRPRHVPRP | -0.0732
RRIRSRPPRLPRPRPRPRHWPRP | 0.618
RRIRSRPPRLPRPRPRPRIPPRP | -0.179
RRIRSRPPRLPRPRPRPRIQPRP | -0.00704
RRIRSRPPRLPRPRPRPRIVPRP | -0.174
RRIRSRPPRLPRPRPRPRLGPRP | 0.468
RRIRSRPPRLPRPRPRPRLQPRP | 0.307
RRIRSRPPRLPRPRPRPRLVPRP | 0.356
RRIRSRPPRLPRPRPRPRMIPRP | -0.086
RRIRSRPPRLPRPRPRPRNDPRP | -0.181
RRIRSRPPRLPRPRPRPRPIPRP | -0.0533
RRIRSRPPRLPRPRPRPRPKPRP | 0.518
RRIRSRPPRLPRPRPRPRQLPRP | 0.0648
RRIRSRPPRLPRPRPRPRQYPRP | -0.274
RRIRSRPPRLPRPRPRPRSAPRP | 0.392
RRIRSRPPRLPRPRPRPRSQPRP | 0.169
RRIRSRPPRLPRPRPRPRSVPRP | 0.0603
RRIRSRPPRLPRPRPRPRTGPRP | 0.185

Sequence | shrunken log2 fold change
RRIRSRPPRLPRPRPRPRTHPRP | 0.181
RRIRSRPPRLPRPRPRPRTMPRP | 0.108
RRIRSRPPRLPRPRPRPRVEPRP | 0.183
RRIRSRPPRLPRPRPRPRVHPRP | 0.109
RRIRSRPPRLPRPRPRPRVKPRP | -0.224
RRIRSRPPRLPRPRPRPRWGPRP | 0.228
RRIRSRPPRLPRPRPRPRYHPRP | -0.339
RRIRSRPPRLPRPRPRPSAQPRP | 0.198
RRIRSRPPRLPRPRPRPSDVPRP | -0.221
RRIRSRPPRLPRPRPRPSEGPRP | -0.559
RRIRSRPPRLPRPRPRPSELPRP | -0.215
RRIRSRPPRLPRPRPRPSIEPRP | -0.013
RRIRSRPPRLPRPRPRPSIHPRP | -0.479
RRIRSRPPRLPRPRPRPSLNPRP | -0.142
RRIRSRPPRLPRPRPRPSLRPRP | -0.269
RRIRSRPPRLPRPRPRPSMIPRP | -0.625
RRIRSRPPRLPRPRPRPSMWPRP | 0.149
RRIRSRPPRLPRPRPRPSNIPRP | -0.484
RRIRSRPPRLPRPRPRPSQKPRP | -0.158
RRIRSRPPRLPRPRPRPSRMPRP | -0.205
RRIRSRPPRLPRPRPRPSRNPRP | -0.129
RRIRSRPPRLPRPRPRPSRWPRP | 0.188
RRIRSRPPRLPRPRPRPSTCPRP | 0.0296
RRIRSRPPRLPRPRPRPSTEPRP | -0.0608
RRIRSRPPRLPRPRPRPSTKPRP | -0.00791
